This is an account of results in US20240391977A1.

The target of the experiment is human TPOR (thrombopoietin receptor, c-Mpl) expressed on BaF3/c-Mpl cells (human) (UniProt P40238). Nature of the experiment: cell-based or functional assay.

Turning to Romiplostim (Nplate®) (Fc fusion), the EC50 (ng/ml), growth of BaF3/c-Mpl cells by CCK-8 assay; Nplate® turned out to be 8.78 ng/mL.
